{
  "source": "paper PMC3988998",
  "about": "“Molecular Mechanism of Antibody-Mediated Activation of β-galactosidase” (Structure(London, England:1993), 2014)",
  "biological_target": "T1, Escherichia coli β-galactosidase (E. coli, UniProt P00722 = β-galactosidase)",
  "T1 construct": "β-galactosidase of E. coli, encoded by lacZ; Wild-type commercial enzyme; source: bought: Sigma catalog no; G3153",
  "T1 sequence (P00722 whole entry)": "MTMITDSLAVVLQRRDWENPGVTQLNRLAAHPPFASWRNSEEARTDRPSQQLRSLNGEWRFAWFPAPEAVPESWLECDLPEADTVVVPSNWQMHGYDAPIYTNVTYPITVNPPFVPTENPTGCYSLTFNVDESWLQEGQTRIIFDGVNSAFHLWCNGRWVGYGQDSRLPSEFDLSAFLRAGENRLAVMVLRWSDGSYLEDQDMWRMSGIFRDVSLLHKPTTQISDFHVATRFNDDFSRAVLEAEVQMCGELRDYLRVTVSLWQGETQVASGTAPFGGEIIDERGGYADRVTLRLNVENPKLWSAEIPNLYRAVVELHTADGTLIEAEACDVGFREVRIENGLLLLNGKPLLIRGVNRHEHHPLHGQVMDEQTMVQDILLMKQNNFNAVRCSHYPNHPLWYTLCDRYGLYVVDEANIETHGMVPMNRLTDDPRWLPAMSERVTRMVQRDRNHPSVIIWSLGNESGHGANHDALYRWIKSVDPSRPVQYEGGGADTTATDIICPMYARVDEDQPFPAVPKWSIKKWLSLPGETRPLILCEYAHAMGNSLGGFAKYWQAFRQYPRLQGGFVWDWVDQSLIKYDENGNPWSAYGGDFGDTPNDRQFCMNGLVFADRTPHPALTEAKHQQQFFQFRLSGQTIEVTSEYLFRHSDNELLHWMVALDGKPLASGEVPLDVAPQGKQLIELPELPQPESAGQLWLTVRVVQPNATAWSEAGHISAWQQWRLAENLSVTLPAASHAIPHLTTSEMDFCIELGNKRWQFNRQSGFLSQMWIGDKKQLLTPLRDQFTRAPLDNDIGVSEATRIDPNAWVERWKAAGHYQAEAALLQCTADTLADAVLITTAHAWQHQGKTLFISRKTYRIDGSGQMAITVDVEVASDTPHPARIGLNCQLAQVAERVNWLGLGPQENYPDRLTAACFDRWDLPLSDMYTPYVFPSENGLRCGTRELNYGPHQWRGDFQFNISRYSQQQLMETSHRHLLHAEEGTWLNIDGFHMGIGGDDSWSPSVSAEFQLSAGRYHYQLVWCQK",
  "test": "cryo-EM structure; β-gal mixed with scFv13R4 in a 1:10 stoichiometric ratio (2.5-fold excess), 1 hr on ice; single-particle cryo-EM, map at ~13 Å; rigid-body docking of β-gal (1F4A) and of the HyHEL-10 Fv (3A6B)",
  "settings": "both partners purified",
  "data": [
    {"binder": "scFv13R4 (scFv, V domains shown, model of the complex deposited as PDB 4CKD, built by docking the HyHEL-10 Fv of PDB 3A6B; 28 kDa single-chain Fv selected for cytoplasmic expression (Martineau et al., 1998); The preparation held GroEL as an impurity; also called Fv antibody; source: E. coli strain PM12 (BL21 (DE3) pLysS with a lacZ:Tn5 mutation), pET 16b, purified (nickel-nitrilotriacetic acid column)) VH: EVQLVESGGSLVKPGGSLRLSCAASGFTFSNYSMNWVRQAPGKGLEWISSISGSSRYIYYADFVKGRFTISRDNATNSLYLQMNSLRAEDTAVYYCVRSSITIFGGGMDVWGRGTLVTVSS VL: QSVLTQPASVSGSPGQSITISCAGTSSDVGGYNYVSWYQQHPGKAPKLMIYEDSKRPSGVSNRFSGSKSGNTASLTISGLQAEDEADYYCSSYTTRSTRVFGGGTKLAVL", "values": [
      {"measurement": "stoichiometry N", "result": 1, "unit": "Fv per β-gal subunit"}
    ]}
  ]
}
